Data on five molecules can be found in publication PMC2709577.

Read-outs that look alike come from different tables or passages of the source.

Experiment in all cases: nanopore rupture with qPCR
(In qPCR the cycle at which signal appears reflects the starting amount.)

The target of series [1] is T1, EcoRI restriction endonuclease (UniProt P00642 1-277).
For series [2], the target named is T1, EcoRI restriction endonuclease. The source holds these as a separate data set.
Series [3] has the same target. This is another data set of the same source.

T1 sequence (P00642 whole entry): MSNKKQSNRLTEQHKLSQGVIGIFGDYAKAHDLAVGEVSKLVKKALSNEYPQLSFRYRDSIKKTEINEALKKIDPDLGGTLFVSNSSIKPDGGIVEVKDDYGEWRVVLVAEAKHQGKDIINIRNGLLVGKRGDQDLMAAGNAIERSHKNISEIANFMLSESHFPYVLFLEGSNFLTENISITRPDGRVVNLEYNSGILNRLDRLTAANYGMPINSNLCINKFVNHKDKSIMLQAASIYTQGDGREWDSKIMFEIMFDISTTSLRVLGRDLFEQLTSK

B1: 105 bp cognate TGAATTC (dsDNA)
DNA 1: TAAGTTGGGTAACGCCAGGGTTTTCCCAGTCACGACGTTGTAAAACGACGGCCAGTGAATTCGAGCTCGGTACCCGGGGATCCTCTAGAGTCGACCTGCAGGCAT
DNA 2: ATGCCTGCAGGTCGACTCTAGAGGATCCCCGGGTACCGAGCTCGAATTCACTGGCCGTCGTTTTACAACGTCGTGACTGGGAAAACCCTGGCGTTACCCAACTTA
For the molecule B1, the binding signal in series [1] was 2.16 ± 0.08 V (threshold voltage); in series [2], 2.08 ± 0.03 V (threshold voltage); in series [3], 2.09 ± 0.06 V (threshold voltage).

B2: 105 bp TGCATTC (second base A to C) (dsDNA)
DNA 1: TAAGTTGGGTAACGCCAGGGTTTTCCCAGTCACGACGTTGTAAAACGACGGCCAGTGCATTCGAGCTCGGTACCCGGGGATCCTCTAGAGTCGACCTGCAGGCAT
DNA 2: ATGCCTGCAGGTCGACTCTAGAGGATCCCCGGGTACCGAGCTCGAATGCACTGGCCGTCGTTTTACAACGTCGTGACTGGGAAAACCCTGGCGTTACCCAACTTA
As to B2, the binding signal in series [1] was 0.87 ± 0.06 V (threshold voltage); in series [2], 0.93 ± 0.05 V (threshold voltage); in series [3], 0.93 ± 0.06 V (threshold voltage).

B3: 105 bp TTAATTC (first base G to T) (dsDNA)
DNA 1: TAAGTTGGGTAACGCCAGGGTTTTCCCAGTCACGACGTTGTAAAACGACGGCCAGTTAATTCGAGCTCGGTACCCGGGGATCCTCTAGAGTCGACCTGCAGGCAT
DNA 2: ATGCCTGCAGGTCGACTCTAGAGGATCCCCGGGTACCGAGCTCGAATTAACTGGCCGTCGTTTTACAACGTCGTGACTGGGAAAACCCTGGCGTTACCCAACTTA
Take B3: the binding signal in series [1] is 1.17 ± 0.09 V (threshold voltage); in series [2], 1.18 ± 0.06 V (threshold voltage); in series [3], 1.16 ± 0.03 V (threshold voltage).

B4: 105 bp TGACTTC (third base A to C) (dsDNA)
DNA 1: TAAGTTGGGTAACGCCAGGGTTTTCCCAGTCACGACGTTGTAAAACGACGGCCAGTGACTTCGAGCTCGGTACCCGGGGATCCTCTAGAGTCGACCTGCAGGCAT
DNA 2: ATGCCTGCAGGTCGACTCTAGAGGATCCCCGGGTACCGAGCTCGAAGTCACTGGCCGTCGTTTTACAACGTCGTGACTGGGAAAACCCTGGCGTTACCCAACTTA
In the case of B4, the binding signal was 1.11 ± 0.08 V (threshold voltage) in series [1], 1.08 ± 0.04 V (threshold voltage) in series [2] and 1.02 ± 0.08 V (threshold voltage) in series [3].

B5: 105 bp AGAATTC (5' flank T to A) (dsDNA)
DNA 1: TAAGTTGGGTAACGCCAGGGTTTTCCCAGTCACGACGTTGTAAAACGACGGCCAGAGAATTCGAGCTCGGTACCCGGGGATCCTCTAGAGTCGACCTGCAGGCAT
DNA 2: ATGCCTGCAGGTCGACTCTAGAGGATCCCCGGGTACCGAGCTCGAATTCTCTGGCCGTCGTTTTACAACGTCGTGACTGGGAAAACCCTGGCGTTACCCAACTTA
Turning to B5, the binding signal was 1.62 ± 0.07 V (threshold voltage) in series [1], 1.72 ± 0.05 V (threshold voltage) in series [2] and 1.84 ± 0.05 V (threshold voltage) in series [3].
